Experimental data as given in US20110288005A1.

Biological target: bovine pancreatic trypsin (Sigma T1426) (bovine) (UniProt P00760)
Test: cell-based or functional assay

Sequence of bovine pancreatic trypsin (Sigma T1426) (bovine) (P00760 24-246): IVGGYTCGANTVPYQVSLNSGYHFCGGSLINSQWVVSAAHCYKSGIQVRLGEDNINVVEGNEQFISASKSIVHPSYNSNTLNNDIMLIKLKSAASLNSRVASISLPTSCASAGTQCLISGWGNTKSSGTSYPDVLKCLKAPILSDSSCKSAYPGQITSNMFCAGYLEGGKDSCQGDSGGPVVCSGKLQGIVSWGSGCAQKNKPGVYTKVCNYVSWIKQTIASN

Substance	% Activity (compared to positive control plasma-derived aaT) [%]	IC50 (µM), equilibrium trypsin inhibition assay [µM]
aaT-XTEN_AE288	65	0.82
aaT-XTEN_AE576	106	0.5
